experiment: label from the status in PepcDB records

Row | Sequence | protein production
1 | MSLDFRSADFLRTHISDTMAFYHPRCIDSAGGFFHYFRDDGSIYNATHRHLVSSTRFVFNYAMAYLQFGTAEYLDAVHHGLSYVRDVHRNPATGGYAWTLCDDRVEDDTNHCYGLAFVMLAYSCGLKVGIKQAREWMDETWCLLERHFWDAEYGLYKDEADAQWNFTRYRGQNANMHMCEAMLAAYEASGEQRYLERALVLADRITRRQAAKADGLVWEHYDMRWEVDWDYNRDNPKHLFRPWGFQPGHQTEWAKLLLILDRYIEVEWLVPVARSLFDVAVARSWDAVRGGLCYGFAPDGTICDDDKYFWVQAESLAAAALLATRSGDERYWQWYDRLWAYAWQHMVDHRYGAWYRLLDGDNRKYNDEKSPAGKTDYHTMGACHEVLNVVWTKSEGHHHHHH | not failed
2 | MSLDIQSLDIQCEELSDARWAELLPLLQQCQVVRLDDCGLTEARCKDISSALRVNPALAELNLRSNELGDVGVHCVLQGLQTPSCKIQKLSLQNCCLTGAGCGVLSSTLRTLPTLQELHLSDNLLGDAGLQLLCEGLLDPQCRLEKLQLEYCSLSAASCEPLASVLRAKPDFKELTVSNNDINEAGVRVLCQGLKDSPCQLEALKLESCGVTSDNCRDLCGIVASKASLRELALGSNKLGDVGMAELCPGLLHPSSRLRTLWIWECGITAKGCGDLCRVLRAKESLKELSLAGNELGDEGARLLCETLLEPGCQLESLWVKSCSFTAACCSHFSSVLAQNRFLLELQISNNRLEDAGVRELCQGLGQPGSVLRVLWLADCDVSDSSCSSLAATLLANHSLRELDLSNNCLGDAGILQLVESVRQPGCLLEQLVLYDIYWSEEMEDRLQALEKDKPSLRVIS | not failed
3 | MSLDKVLVGYWHNWKSTGKDGYKGGSSADFNLSSTQEGYNVINVSFMKTPEGQTLPTFKPYNKTDTEFRAEISKLNAEGKSVLIALGGADAHIELKKSQESDFVNEIIRLVDTYGFDGLDIDLEQAAIEAADNQTVIPSALKKVKDHYRKDGKNFMITMAPEFPYLTSSGKYAPYINNLDSYYDFINPQYYNQGGDGFWDSDLNMWISQSNDEKKEDFLYGLTQRLVTGTDGFIKIPASKFVIGLPSNNDAAATGYVKDPNAVKNALNRLKASGNEIKGLMTWSVNWDAGTNSNGEKYNNTFVNTYAPMLFNNEGHHHHHH | not failed
4 | MSLDLSLNNLYSISTVELIQAFANTPASVTSLNLSGNSLGFKNSDELVQILAAIPANVTSLNLSGNFLSYKSSDELVKTLAAIPFTITVLDLGWNDFSSKSSSEFKQAFSNLPASITSLNLRGNDLGIKSSDELIQILAAIPANVNSLNLRGNNLASKNCAELAKFLASIPASVTSLDLSANLLGLKLEHHHHHH | failed
5 | MSLDMSPVQGKLDGRIRAQNPEEFLERLSQEYHFQWFVYNDTLYVSPSSEHTSARIEVSPDAVDDLQTALTDVGLLDKRFGWGSLPDEGVVLVRGPAKYVEFVRDYSKKVEKPDEKADKQDVVVLPLKYANAADRTIRYRDQQLVVAGVASILQELLESRSRGESIDSVNLLPGQGSSVANSTGVAAAGLPYNLGSNGIDTGALQQGIDRVLNFNSKKTAKGHASGKANIRVSADVRNNSVLIYDLPERKAMYQKLVKELDVPRNLIEIDAVILDIDRNELAELSSRWNFNAGSVGGGANLFDAGTSSTLFLQNASKFSAELHALEGNGSASVIGNPSILTLENQPAVIDLSRTEYLTATSERAADILPITAGTSLQVIPRSLDNDGKPQVQMIVDIEDGQIDVSTINDTQPSVRRGNVSTQAVIAEHGSLVIGGFHGLEANDRIHKIPLLGDIPYIGKLLFQSRSRELSQRERLFILTPRLIGDQVNPARYVQNGNPHDVDDQMKKIKERRDGGELPTRGDIQKVFTQMIDGAAPEGLRAGQTLPFETDSLCDPGEGLTLDGQRSQWFVKKDWGVAVVVARNNTDKPVRIDESRCGGRWVIGVAAWPHAWLQPGEESEVYIAVRQPQISKMAKESRPSLLRGAKP | failed
6 | MSLDPAHTPDPAHPHDQEAAHAEDPARAIGSARLLDVDPLLDDPGTRIVVCCGSGGVGKTTTAAALGLRAAERGRKVVVLTIDPARRLAQSMGIDSLDNIPRRVKGIDDSASGELHAMMLDMKRTFDEIVEAHADRERAAAILSNPFYQSLSAGFAGTQEYMAMEKLGQLRARDEWDLIIVDTPPSRSALDFLDAPKRLGSFLDGKLIRLLTAPAKLGGRAGMKFLNVGMSMMTGTLGKLLGGQLLKDVQTFVAAMDTTFGGFRTRADATYKLLQAPGTAFLVVAAPERDALREAAYFVERLAAEDMPLAGLVLNRVHGSGAAQLSAERALAAAENLDLAADPGSTENLEESRIVDQEGGKAGLRNSPDTYGSSESPADLTPADQTPASSEGSPATDGAVEQLTAGLLILHAERMQLLSREQRTRDRFAALHPEVAVAEVAALPGDVHDLTGLRDIGDRLAANRPELPTSPGGALEHHHHHH | not failed
7 | MSLDSKTAPAFSLPDLHGKTVSNADLQGKVTLINFWFPSCPGCVSEMPKIIKTANDYKNKNFQVLAVAQPIDPIESVRQYVKDYGLPFTVMYDADKAVGQAFGTQVYPTSVLIGKKGEILKTYVGEPDFGKLYQEIDTAWRNSDAEGHHHHHH | not failed
8 | MSLDVLTNFAQIQSFTALAIGIMIGLAALGAGLGLAIMAGKFLESAARQPELIPLLQVRMFIAAGLIDAAFIISVAVGLLLAFANPLSSTLLVAVSKALAG | failed
9 | MSLDVYVNFPADGHVREIAKTVLDGFDLHWYPDYYDAEAQVIKDRYVLGKRTKMIQAISAGVDHIDVNGIPENVVLCSNAGAYSISVAEHAFALLLAHAKNILENNELMKAGIFRQSPTTLLYGKALGILGYGGIGRRVAHLAKAFGMRVIAYTRSSVDQNVDVISESPADLFRQSDFVLIAIPLTDKTRGMVNSRLLANARKNLTIVNVARADVVSKPDMIGFLKERSDVWYLSDVWWNEPEITETNLRNAILSPHVAGGMSGEIMDIAIQLAFENVRNFFEGEGHHHHHH | not failed
10 | MSLEARVLTGAALEARLDEVARLRIAVFRDWPYLYEGSMDYERSYLSTYRTSPGAILVGAFDGDRLVGASTGTPMEDHAEDFAAAFARTGLPLDEIFYCAESVLLPDYRGHGMGHRFFDLREAHARALGRRHSAFCSVIRPEDHPLRPAAARSNEPFWRKRGYAPLPGVVAHYGWTDVGEERETQKPLQFWIRDL | not failed
11 | MSLEGLSINFATVRQGGNFGAIVDACLAHGITAISPWREQVHGVGLAEAARIVEQNGLRLSGHCRGGFFPAIDADGRRRAIEDNKRAVDEAAAMKADCLVLVVGGLPAGSRDLKGARQMVEDGMAKLLPYARAAGVPLAIEPLHPFYAAERACFNTLKQSLDLCDRLGAGTGVAIDVYHVWWDPELEEQVARAGRNGQILAHHICDWLVPTTDPLNDRGMMGDGVIDLKAFRAMIEAAGFHGPQEVEIFSHRWQARPMDEVLATVVERFKTVC | failed
12 | MSLEIIKTGLAAFGMSGQVFHAPFISTNPHFELYKIVERSKELSKERYPQASIVRSFKELTEDPEIDLIVVNTPDNTHYEYAGMALEAGKNVVVEKPFTSTTKQGEELIALAKKKGLMLSVYQNRRWDADFLTVRDILAKSLLGRLVEYESTFARYRNFIKPNTWKETGESGGGLTYNLGSHLIDQAIQLFGMPEAVFADLGILREGGKVDDYFIIHLLHPSLAPNVKITLKASYLMREAEPRFALHGTLGSYVKYGVDKQEAALLAGEIPERPNWGEESEQEWGLLHTEINGKEICRKYPGIAGNYGGFYQNIYEHLCLGQPLETHAQDILNVIRIIEAAYQSHRENKIVNLKEGHHHHHH | not failed
13 | MSLEKPYIISVYALIRNEKGEFLLLRRSENSRTNAGKWDLPGGKVNPDESLKEGVAREVWEETGITMVPGDIAGQVNFELTEKKVIAIVFDGGYVVADVKLSYEHIEYSWVSLEKILGMETLPAYFRDFFERFDRENKKPSKLFIEGHHHHHH | not failed
14 | MSLELGQAMVTVAGIGCRKGAASDAIIAAVRAAERAFGVTVDYLATAPLKADEAGLAEAAKGLSLSLEIVAQERLEAVAAETMTFSQASLDHSGSPSVSEAAALAAAGAGARLVAPRLVVGDVTVAIAMTSDAPHGSRSAIEYGEQEEGHHHHHH | not failed
15 | MSLEPLDVDAEGVAAATKARGFRPKHLVTGPSRDDKSFLGHPGGLPWMLQVEMWERFSWYGMRAILVYFITDTLAHGGLGLPINAGQVVMASYGAAVLLMTIPGGIFADRILGPWMSTLCGGLIIMTGHVILAIPQVVTSWIGLICIAIGTGFIKPNLSTVVGGLYDDGDPRRDQGFLYFYMSINIGSLFAPIVTGLLKDHYGYHVGFIAAAIGMALGLIAFFHGRSKLREFAFDIPNPLAPGEGRRMVLRALGIAVVGAVLAIGFKALLGEWTSAIAYALFAFASVTALSYFLTMFRSPKVSDRERGHLWAFVPLWVGQVLFTMIFEQAAGKMPTFAKDNTDGHIVGSWSVEPEQYQTINPAAVLILAGLLGMWFRRREGKFPNTPQKFAISVFIIGITALIMGFGFRSWPGGNRLAPWWFLAVVFVIQTVAELFMNPIGLSTATKLAPKKFASQNMTLWLLASACGQGLASVTIERTKNLGDVVFYYSLGIVTILVAVVLFVIAPWTQAKMKDVDSVAEEGDA | failed
16 | MSLESLFQHIIFTEHQAEESRRLMREVRSEITRCREKIKKATEELNEEKIKLESKVQQFFEKSFFLQLLKAHENALEKQYSEITNHRNMLLQTFEAIKKQMIEEEDKFIKEITDFNNDYEITKKRELLMKENVKIEISDLENQANMLKSEMKSMEHDSSQLNELQKQKSELIQELFTLQRKLKVFEDEENESICTTKYLEAEKIKISEKPQNDTECLRLKKELELYKEDDMESVYEALQTEIEFLELTLAQKDLQESK | failed
17 | MSLFRSRPNALSQRSVIASSSELASLAGRDILKRGGNIFDAALAVSAMLCVTQNNLCGLGGDLFALIRDENGQIMDLNGSGQASRAVSIDYYESMGLTKIPERGPYAAITVPGIAGSWDEIFRKFATMDIADILEPAIRTASAGFPITQNYSDSIARSAPVIGQYRGWSSIFMPNGSVPVAGEILKQPDLAESFRLMSEEGFRSFYDGSLADIIIAGLEGTGSPLSDRDLRVYRPLIGKPVFTDLDEFRIYETSPNSQGITVIEWIRGMESHGYDSRTMWEAKIEDIFETMEEAYDKRRKITDPSYMNIAQHDSANGKKDGLPKRDHNDIGDTTYFSISDSEGRSVSIIQSNYMGFGSGIVPKGTGFVLQNRGSYFTLQRDHPNALMPGKRTFHTLAACMVEKEHDLYASLGSMGGDIQPQVQMQILMEILKDNTDPQAILDKPRWTEPYTIYEAPGAVYVESEELYRNVSKQISGRKVVLRDVSQEFGTAQITTLIRGDVVVGAADPRGDGIAIPYSEGHHHHHH | not failed
18 | MSLIENLWRGICIISASEDAFSAGETIKEKLKSFEIPVVHYRYKDAEIETIWKCYDAIVFVMALEGATRIVCKYAKSKTEDPAIVCIDDKINYVIPLLGGHWGANDIARELSVILNSTPIITTAAEIKGKLSIERIANILIAKIINPENIVKINAALLRDESICIDGIDVNVNFPENIKVNSEECSYIISLRGDKEYKDKIVVWLKPLKISIGIGSKKDVKMEEIRDGIYKVLERLNLKRERIGIIASIREEVKKIADEFNVRFRLVNEEEINNFMNPCLTPPSKTLIEVGLKGVAEISALIAGGRNSKLILRKIAISRNSTIAVATYEGHHHHHH | not failed
19 | MSLKIDAVDLFYLSMPEVTDAADGSQDALLVRVAAGGHIGWGECEAAPLPSIAAFVCPKSHGVCRPVSDSVLGQRLDGPDDIARIAALVGYNSMDLLQAPHMLSGIEMALWDLLGRRLSAPAWALLGYSASHGKRPYASLLFGDTPQETLERARAARRDGFAAVKFGWGPIGRGTVAADADQIMAAREGLGPDGDLMVDVGQIFGEDVEAAAARLPTLDAAGVLWLEEPFDAGALAAHAALAGRGARVRIAGGEAAHNFHMAQHLMDYGRIGFIQIDCGRIGGLGPAKRVADAAQARGITYVNHTFTSHLALSASLQPFAGLEADRICEYPAAPQQLALDITGDHIRPDAEGLIRAPEAPGLGLQVAASALRRYLVETEIRIGGQLIYRTPQLEGHHHHHH | not failed

Reference: a protein production outcome set (Wang et al. 2014)
